Source: the supplement of paper PMC9112550, “Optimization of the antimicrobial peptide Bac7 by deep mutational scanning” (BMC Biology, 2022)

Test system: Escherichia coli TOP10
Assay: shrunken log2 fold change of peptide-encoding DNA abundance (4.5 h post-induction vs induction); higher = less antimicrobial activity (less host growth inhibition)
Details: time post-induction: 4.5 h; library: site-saturation at positions 5, 18, 19, 20
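Further: peptides expressed intracellularly from a pBAD plasmid library in pooled LB shake-flask culture, induced with 0.3% L-arabinose, DNA abundance read by NGS, three biological replicates, DESeq2 with apeglm shrinkage.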

Row | Sequence | shrunken log2 fold change
1 | RRIRMRPPRLPRPRPRPLLQPRP | 0.616
2 | RRIRERPPRLPRPRPRPETAPRP | 0.0892
3 | RRIRRRPPRLPRPRPRPPSNPRP | 0.0633
4 | RRIRLRPPRLPRPRPRPQKIPRP | 0.0459
5 | RRIRERPPRLPRPRPRPESNPRP | -0.65
6 | RRIRQRPPRLPRPRPRPSFTPRP | -1.12
7 | RRIRHRPPRLPRPRPRPTYVPRP | -0.143
8 | RRIRIRPPRLPRPRPRPHGFPRP | -0.383
9 | RRIRSRPPRLPRPRPRPWSHPRP | -0.174
10 | RRIRYRPPRLPRPRPRPNTSPRP | -0.423
11 | RRIRVRPPRLPRPRPRPHHFPRP | -0.114
12 | RRIRCRPPRLPRPRPRPIWAPRP | -0.0162
13 | RRIRNRPPRLPRPRPRPHQYPRP | -0.458
14 | RRIRVRPPRLPRPRPRPQWRPRP | -0.0106
15 | RRIRVRPPRLPRPRPRPTNTPRP | -0.175
16 | RRIRVRPPRLPRPRPRPYLGPRP | -0.177
17 | RRIRERPPRLPRPRPRPYNKPRP | -1.11
18 | RRIRGRPPRLPRPRPRPYKLPRP | -0.481
19 | RRIRCRPPRLPRPRPRPHKQPRP | -0.0354
20 | RRIRVRPPRLPRPRPRPPHVPRP | 0.283
21 | RRIRGRPPRLPRPRPRPKLFPRP | 0.75

Row | Sequence | shrunken log2 fold change
22 | RRIRHRPPRLPRPRPRPMVDPRP | -0.222
23 | RRIRERPPRLPRPRPRPSQPPRP | 0.0471
24 | RRIRSRPPRLPRPRPRPFTYPRP | -0.0179
25 | RRIRRRPPRLPRPRPRPGHTPRP | 0.274
26 | RRIRIRPPRLPRPRPRPFQTPRP | -0.271
27 | RRIRMRPPRLPRPRPRPPIRPRP | 0.248
28 | RRIRYRPPRLPRPRPRPYTIPRP | -0.0225
29 | RRIRWRPPRLPRPRPRPMNEPRP | 0.0689
30 | RRIRERPPRLPRPRPRPQTGPRP | -0.0945
31 | RRIRQRPPRLPRPRPRPEVRPRP | 0.0665
32 | RRIRERPPRLPRPRPRPWITPRP | -0.00674
33 | RRIRIRPPRLPRPRPRPVKMPRP | -0.173
34 | RRIRARPPRLPRPRPRPPCQPRP | 0.438
35 | RRIRYRPPRLPRPRPRPENNPRP | -0.572
36 | RRIRARPPRLPRPRPRPAKEPRP | 0.521
37 | RRIRARPPRLPRPRPRPKNKPRP | 0.216
38 | RRIRVRPPRLPRPRPRPARMPRP | 0.425
39 | RRIRVRPPRLPRPRPRPNYSPRP | -0.438
40 | RRIRPRPPRLPRPRPRPEGDPRP | 0.39
41 | RRIRGRPPRLPRPRPRPNYNPRP | -0.262
42 | RRIRTRPPRLPRPRPRPMCYPRP | -0.252

Row | Sequence | shrunken log2 fold change
43 | RRIRCRPPRLPRPRPRPEIIPRP | -0.363
44 | RRIRKRPPRLPRPRPRPENIPRP | -0.0813
45 | RRIRDRPPRLPRPRPRPQCSPRP | 0.0391
46 | RRIRTRPPRLPRPRPRPHYMPRP | -0.476
47 | RRIRCRPPRLPRPRPRPWENPRP | 0.0328
48 | RRIRLRPPRLPRPRPRPLRFPRP | 0.477
49 | RRIRTRPPRLPRPRPRPLPYPRP | -0.0545
50 | RRIRHRPPRLPRPRPRPELHPRP | 0.00184
51 | RRIRVRPPRLPRPRPRPYAKPRP | -0.0931
52 | RRIRRRPPRLPRPRPRPCVRPRP | 0.11
53 | RRIRMRPPRLPRPRPRPSPEPRP | 1.12
54 | RRIRCRPPRLPRPRPRPSEWPRP | -0.214
55 | RRIRNRPPRLPRPRPRPEQVPRP | 0.0249
56 | RRIRHRPPRLPRPRPRPEVGPRP | 0.0518
57 | RRIRMRPPRLPRPRPRPYPSPRP | -0.0577
58 | RRIRWRPPRLPRPRPRPMPMPRP | 0.112
59 | RRIRTRPPRLPRPRPRPCNLPRP | -0.00247
60 | RRIRSRPPRLPRPRPRPLIGPRP | -0.118
61 | RRIRLRPPRLPRPRPRPHMCPRP | -0.165
62 | RRIRWRPPRLPRPRPRPIVVPRP | -0.0496
63 | RRIRSRPPRLPRPRPRPMWCPRP | 0.136
